T1: mouse CXCL13 (mouse, UniProt O55038 22-109)
T1 construct: Recombinant protein bought from Peprotech (#250-24); In some assays native mouse CXCL13 from organ extracts of TNF-alpha transgenic mice was used; this is said in the assay field; also called recombinant mouse CXCL13; rmuCXCL13
T1 sequence: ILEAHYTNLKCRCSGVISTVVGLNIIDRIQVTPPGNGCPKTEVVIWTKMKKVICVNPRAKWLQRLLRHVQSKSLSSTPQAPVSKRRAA

T2: cynomolgus monkey CXCL13 (cynomolgus monkey, UniProt O43927 23-104 (human entry), limits assumed)
T2 construct: Recombinant; also called recombinant cynomolgus monkey CXCL13
T2 chain: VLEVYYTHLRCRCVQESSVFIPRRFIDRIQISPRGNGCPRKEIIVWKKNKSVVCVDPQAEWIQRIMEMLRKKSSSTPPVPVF

T3: human CXCL13 (human, UniProt O43927 23-109)
T3 construct: Recombinant protein bought from Peprotech (#300-47); In some assays native human CXCL13 from supernatant of IFN-gamma-stimulated THP-1 cells was used; this is said in the assay field; also called recombinant human CXCL13; rhuCXCL13
T3 sequence: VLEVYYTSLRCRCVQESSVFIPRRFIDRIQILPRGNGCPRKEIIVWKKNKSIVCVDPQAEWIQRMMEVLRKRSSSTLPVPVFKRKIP

T4: human CXCL13 15-mer peptide YTSLRCRCVQESSVF (human)
T4 peptide: YTSLRCRCVQESSVF


Columns and labels:
mouse CXCL13 [1] = target: T1, mouse CXCL13; test: SPR (Biacore), recombinant mouse CXCL13; printed as Affinity (Biacore), nM
cynomolgus monkey CXCL13 [2] = target: T2, cynomolgus monkey CXCL13; test: Specificity ELISA on recombinant cynomolgus monkey CXCL13 coated at 100 nM, OD 450/570, four-parameter sigmoidal fit
human CXCL13 [3] = target: T3, human CXCL13; test: SPR (BIACORE), recombinant human CXCL13, methods similar to Example 1; printed as Affinity, nM
Experimental: (§1) Chemokines were immobilized on a C1 chip in Acetate buffer (pH=5) with human CXCL13 at 1 μg/ml, mouse CXCL13 at 0.3 μg/ml, and negative control SDF-1α at 0.5 μg/ml. 3D2 and 3C9 were diluted in HBS-EP buffer by two-fold from 100 nM to 0.78 nM and from 38 nM to […].

[4] = target: T4, human CXCL13 15-mer peptide …; test: ProArray Ultra peptide microarray of 15-mer human CXCL13 peptides, fluorescent secondary antibody
Experimental: In this project, the determination of peptide-antibody binding was performed by incubation of serum samples with a ProArray Ultra™ peptide microarray. This peptide array was generated as 15-mer peptides overlapping by 10 amino acids from the human CXCL13 primary sequence. The CXCL13 array contained sixteen unique peptides. […] After several washing steps the ProArray Ultra™ arrays were dried and scanned using a high-resolution fluorescence microarray scanning system.

human CXCL13 [5] = target: T3, human CXCL13; test: Specificity ELISA on recombinant human CXCL13 coated at 100 nM, OD 450/570, four-parameter sigmoidal fit
mouse CXCL13 [6] = target: T1, mouse CXCL13; test: Capture Epitope Competition ELISA: native mouse CXCL13 captured with MAb 470; unlabeled competitor inhibits binding of 3.3 nM biotin-3D2; four-parameter fit
Experimental: For mouse ELISA, mouse CXCL13 (1:40 dilution of TNF-Tg organ extract) was captured with 33 nM MAb 470 and detected with 3.3 nM biotin-3D2. Each data point represents an average of duplicate measurements from one of at least three independent experiments. […] Curves shown in FIGS. 17A-B were fitted using four-parameter sigmoidal curve fit (R²=0.99).

mouse CXCL13 [7] = target: T1, mouse CXCL13; test: SPR (BIACORE), recombinant mouse CXCL13, methods similar to Example 1; printed as Affinity, nM
Experimental: as §1

mouse CXCL13 [8] = target: T1, mouse CXCL13; test: Specificity ELISA on recombinant mouse CXCL13 coated at 100 nM, OD 450/570, four-parameter sigmoidal fit
Experimental: For specificity ELISA, recombinant human, cynomolgus monkey, and mouse CXCL13 were each coated at 100 nM. […] The data points for each chemokine represents the mean of triplicate measurements. EC50 values were calculated from four-parameter sigmoidal curve fit (R² for the curves that produced EC50 values were 0.99).

human CXCL13 [9] = target: T3, human CXCL13; test: SPR (Biacore), recombinant human CXCL13; printed as Affinity (Biacore), nM
human CXCL13 [10] = target: T3, human CXCL13; test: Specificity ELISA on recombinant human CXCL13 coated at 100 nM, OD 450/570, four-parameter sigmoidal fit; remark: listed apart in the source
Experimental: (§2) Each data point represents mean of triplicate measurements. EC50 values were calculated from four-parameter sigmoidal curve fit (R² for the curves that produced EC50 values were 0.99).

cynomolgus monkey CXCL13 [11] = target: T2, cynomolgus monkey CXCL13; test: Specificity ELISA on recombinant cynomolgus monkey CXCL13 coated at 100 nM, OD 450/570, four-parameter sigmoidal fit
Experimental: as §2

mouse CXCL13 [12] = target: T1, mouse CXCL13; test: Specificity ELISA on recombinant mouse CXCL13 coated at 100 nM, OD 450/570, four-parameter sigmoidal fit; remark: listed apart in the source
Experimental: as §2

human CXCL13 [13] = target: T3, human CXCL13; test: SPR (BIACORE), recombinant chemokine immobilized on C1 chip, antibody in solution; printed as Affinity, nM
Experimental: as §1

mouse CXCL13 [14] = target: T1, mouse CXCL13; test: as above
Experimental: as §1

mouse CXCL13 [15] = target: T1, mouse CXCL13; test: Capture Epitope Competition ELISA: native mouse CXCL13 (TNF-Tg organ extract) captured with MAb 470; unlabeled 3D2 inhibits binding of biotin-3D2; percent maximal response, four-parameter fit
Experimental: (§3) Mouse CXCL13-rich organ extracts from TNF-alpha transgenic mice were used as sources of native mouse CXCL13. Mouse CXCL13 (1:40 dilution of TNF-Tg organ extract or 0.5 nM rmuCXCL13) was captured with 33 nM MAb 470 and detected with 3.3 nM biotin-3D2. The chemokine from the extracts (and recombinant mouse CXCL13 which was used as a control) was captured on the ELISA plate by MAb 470. The plate was then incubated with biotinylated 3D2 in the presence of various amounts of unlabeled 3D2.

human CXCL13 [16] = target: T3, human CXCL13; test: Capture Epitope Competition ELISA: recombinant human CXCL13 captured with MAb 801; unlabeled 3D2 inhibits binding of biotin-3C9; percent maximal response, four-parameter fit
Experimental: (§4) Capture Epitope Competition ELISA was used to assess 3D2 binding to native human and mouse CXCL13. In this assay, native human CXCL13 was obtained from supernatants collected from human IFN-gamma-stimulated THP-1 cells. […] The plate was then incubated with biotinylated 3C9 in the presence of various amounts of unlabeled 3D2. […] As evident from FIG. 3A, 3D2 strongly bound to both native and recombinant human CXCL13 producing statistically similar EC50 values.

human CXCL13 [17] = target: T3, human CXCL13; test: Specificity ELISA on plate-coated recombinant human CXCL13, OD 450/570, four-parameter sigmoidal fit
Experimental: (§5) Hybridoma clones were screened by ELISA for binding to human and mouse CXCL13 protein. ELISA plates were coated with about 100 nM of human (Peprotech: #300-47) or mouse (Peprotech: #250-24) CXCL13 protein overnight at room temperature (RT). […] The plates were washed and developed with tetramethylbenzidine (TMB) substrate reagents A and B (BD Biosciences: #555214) mixed at equal volumes for 15 minutes in the dark and read at 450/570 wavelengths. Two positive hybridoma clones, labelled “3D2” and “3C9”, both mouse IgG1 antibodies, were selected for further characterization.
(§6) Specificity of the hybridoma-produced mouse anti-human antibodies, 3D2 and 3C9, was assessed by ELISA (as described above) on a panel that included recombinant chemokines (Peprotech: mouse and human CXCL13, human IL-8/CXCL8 (#200-08), human IP-10/CXCL10 (#200-10), human MIG/CXCL9 (#300-26), human SDF-1alpha/CXCL12 (#300-28A) and cynomolgus monkey CXCL13) as well as several non-specific control antigens (recombinant human C35, streptavidin (Thermo: #21122), bovine serum albumin (BSA) (SeraCore: #AP-4510-01)), human serum albumin (HAS) (Sigma: #A8763), insulin (Gibco: #12585-014), and hemoglobin (Sigma: #H7379).

mouse CXCL13 [18] = target: T1, mouse CXCL13; test: Specificity ELISA on plate-coated recombinant mouse CXCL13, OD 450/570, four-parameter sigmoidal fit
Experimental: as §5, §6

cynomolgus monkey CXCL13 [19] = target: T2, cynomolgus monkey CXCL13; test: Specificity ELISA on plate-coated recombinant cynomolgus monkey CXCL13, OD 450/570, four-parameter sigmoidal fit
Experimental: as §5, §6

mouse CXCL13 [20] = target: T1, mouse CXCL13; test: Capture Epitope Competition ELISA: recombinant mouse CXCL13 captured with MAb 470; unlabeled 3D2 inhibits binding of biotin-3D2; percent maximal response, four-parameter fit
Experimental: as §3

human CXCL13 [21] = target: T3, human CXCL13; test: Capture Epitope Competition ELISA: native human CXCL13 (THP-1 supernatant) captured with MAb 801; unlabeled 3D2 inhibits binding of biotin-3C9; percent maximal response, four-parameter fit
Experimental: as §4

Kd (mouse CXCL13 [1]) [nM]	EC50 (cynomolgus monkey CXCL13 [2]) [nM]	Kd (human CXCL13 [3]) [nM]	EC50 (human CXCL13 [5]) [nM]	EC50 (mouse CXCL13 [6]) [nM]	Kd (mouse CXCL13 [7]) [nM]	EC50 (mouse CXCL13 [8]) [nM]	Kd (human CXCL13 [9]) [nM]	EC50 (human CXCL13 [10]) [nM]	EC50 (cynomolgus monkey CXCL13 [11]) [nM]	Binder	further results
–	–	4.5	–	–	4.2	–	–	0.2	0.3	MAb 5378 (antibody, V domains shown, also called H5188/L5153) VH: QVQLQESGPGLVKPSETLSLTCTVSGFSLSTFGMGVGWIRQPPGKGLEWIAHIWWDDDRRYNPALKSRVTISKDTSKNQFSLKLSSVTAADTAVYYCARIAGYYGSRDWFAYWGQGTTVTVSS VL: DIQMTQSPSSLSASVGDRVTITCRASESVDNMGISFMHWYQQKPGKAPKLLIFRASDLESGVPSRFSGSGSGTDFTLTISSLQPEDFATYYCQQSNKDPWTFGQGTKLEIK	EC50 (mouse CXCL13 [12]): 3.4 nM
59.2	0.06	–	0.03	24.3	–	2.1	14.5	–	–	MAb 5080 (antibody, human IgG1, V domains shown, also called H2177/L5055) VH: QVQLQESGPGLVKPSETLSLTCTVSGFSLSTFGMGVGWIRQPPGKGLEWIAHIWWDDDRRYNPALKSRVTISKDTSKNQFSLKLSSVTAADTAVYYCARIAGYYGSRDWFAYWGQGTTVTVSS VL: DIQMTQSPSSLSASVGDRVTITCRASESVDNSGISFMHWYQQKPGKAPKLLIFRASDLESGVPSGFSGSGSRTDFTLTISSLQPEDFATYYCQQSNKDPWTFGQGTKLEIK	–

The remaining lines, values behind:

Binder	Kd (mouse CXCL13 [1]) [nM]	EC50 (cynomolgus monkey CXCL13 [2]) [nM]	Kd (human CXCL13 [3]) [nM]	EC50 (human CXCL13 [5]) [nM]	EC50 (mouse CXCL13 [6]) [nM]	Kd (mouse CXCL13 [7]) [nM]	EC50 (mouse CXCL13 [8]) [nM]	Kd (human CXCL13 [9]) [nM]	EC50 (human CXCL13 [10]) [nM]	EC50 (cynomolgus monkey CXCL13 [11]) [nM]	further results
MAb 5261 (antibody, V domains shown, Humanized) VH: QVQLQESGPGLVKPSETLSLTCTVSGFSLSTFGMGVGWIRQPPGKGLEWIAHIWWDDDRRYNPALKSRVTISKDTSKNQFSLKLSSVTAADTAVYYCARIAGYYGSRDWFAYWGQGTTVTVSS VL: DIQMTQSPSSLSASVGDRVTITCRASESVDNMGISFMHWYQQKPGKAPKLLIFRASDLESGVPSRFSGSGSGTDFTLTISSLQPEDFATYYCQQSNKDPWTFGQGTKLEIK	8.1	0.04	5.1	0.03	6	8.1	0.09	5.1	–	–	binding result [4]: binds
3D2 (antibody, mouse IgG1, V domains shown, Hybridoma-produced mouse IgG1; also called mouse anti-human CXCL13 antibody 3D2; H1609/L0293) VH: EVQLQESGPGILQPSQTLNLTCSFSGFSLSTFGMGVGWIRQPSGKGLEWLAHIWWDDDRRYNPALKSRLTISKETSKNQVFLKIANVDTADTATYYCTRIAGYYGSRDWFAYWGQGTTVTVSS VL: DIVLTQSPASLAVSLGQRATISCRASESVDNSGISFMHWYQQKPGQPPKLLIFRASDLESGIPARFSGSGSRTDFTLTVNPVETDDVATYFCQQSNKDPWTFGGGTKLEIK	159	–	13	–	11.2	159	–	13	0.2	8.9	Kd (human CXCL13 [13]): 12.9 nM; Kd (mouse CXCL13 [14]): 159 nM; EC50 (mouse CXCL13 [15]): 11.2 nM; EC50 (human CXCL13 [16]): 0.46 nM; EC50 (human CXCL13 [17]): 1.1 nM; EC50 (mouse CXCL13 [18]): 0.98 nM; EC50 (cynomolgus monkey CXCL13 [19]): 0.8 nM; EC50 (mouse CXCL13 [20]): 12.5 nM; EC50 (human CXCL13 [21]): 0.13 nM
MAb 1476 (antibody, V domains shown, Chimeric IgG1: 3D2 variable domains (H1609/L0293) on human gamma 1 heavy chain constant and human kappa constant; also called chimeric 3D2) VH: EVQLQESGPGILQPSQTLNLTCSFSGFSLSTFGMGVGWIRQPSGKGLEWLAHIWWDDDRRYNPALKSRLTISKETSKNQVFLKIANVDTADTATYYCTRIAGYYGSRDWFAYWGQGTTVTVSS VL: DIVLTQSPASLAVSLGQRATISCRASESVDNSGISFMHWYQQKPGQPPKLLIFRASDLESGIPARFSGSGSRTDFTLTVNPVETDDVATYFCQQSNKDPWTFGGGTKLEIK	–	0.51	–	0.07	–	–	–	11.4	–	–	–
